Results on two molecules are retold here after US9433687B2, “Anti-Notch3 antibodies and antibody-drug conjugates” (Pfizer Inc., priority 2012, dated 2016).

Data set [1] is described as follows: Thermal stability by differential scanning calorimetry (DSC). It counts as physicochemical. Particulars: 0.3 mg/ml in PBS. On the procedure:
There is a positive correlation between the thermal stability of a protein or protein domain with the overall stability of the protein or protein domain. A higher melting point of a protein or protein domain often provides improved manufacturability and longer shelf life. Differential scanning calorimetry (DSC) was used to assess the thermal stability of hu28 and hu75 versus ch28 and ch75, respectively. Protein samples were diluted in PBS to 0.3 mg/ml in a volume of 250 μl. The corresponding formulation buffer blank was used for the reference sample. Both samples were thoroughly degassed using a MicroCal ThermoVac Sample Degassing and Thermostat (Microcal, Inc., Northampton, Mass.) set to 8° C. Samples were dispensed into the appropriate cells of a MicroCal VP-DSC Capillary Cell MicroCalorimter (MicroCal, Inc., Northampton, Mass.). Samples were equilibrated for 4 minutes at 15° C. and then scanned up to 100° C. at a rate of 100° C. per hour. A filtering period of 20 seconds was selected. Raw data was baseline corrected and the protein concentration was normalized. Origin Software (OriginLab Corporation, Northampton, Mass.) was used to fit the data to an MN2-State Model with an appropriate number of transitions.

In the next data set the target is T1, human Notch2 NRR-Fc (Homo sapiens, UniProt Q04721).
T1 construct: Expression constructs encoding human Notch1 and Notch2 NRR regions, fused with human IgG1 Fc fragments; made in house; host or cells: CHO-PACE cells
T1 sequence (Q04721 1425-1677 limits assumed): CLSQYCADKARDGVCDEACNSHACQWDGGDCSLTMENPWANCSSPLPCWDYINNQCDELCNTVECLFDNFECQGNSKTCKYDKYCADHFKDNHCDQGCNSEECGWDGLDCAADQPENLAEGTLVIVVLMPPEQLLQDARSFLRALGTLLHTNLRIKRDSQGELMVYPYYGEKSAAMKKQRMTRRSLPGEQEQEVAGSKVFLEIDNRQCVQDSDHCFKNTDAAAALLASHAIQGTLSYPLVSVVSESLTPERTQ
Nature of the data set: Binding to Notch2 NRR-Fc. Particulars: N/B = non-binding. From the text: (§1) Other members of the Notch receptor family play important roles in biological processes. For example, a Notch1 or Notch2 deficiency leads to embryonic death in mouse models. In contrast, a Notch4 deficiency results in no detectable phenotype in mouse models. The closest homologues of the Notch3 NRR region are Notch1 and Notch2 (˜50% homology), and Notch4 is a more distant homologue (˜30% homology). Cross-reactivity of anti-Notch3 antibodies to other members of the Notch family, especially Notch1 and 2, may lead to undesired effects in patients. Therefore, the potential cross-reactivity of r28 and hu28, along with r75 and hu75 to other Notch family members were assessed.
(§2) Expression constructs encoding human Notch1 and Notch2 NRR regions, fused with human IgG1 Fc fragments were stably introduced into CHO-PACE cells. Conditioned media from these cells expressing NRR-Fc fusions were collected. Human Notch2 NRR-Fc and human Notch1 NRR-Fc were purified by protein A affinity followed by size exclusion chromatography (SEC). Purified preparations were dialysed into TBS with 1 mM CaCl2 and analyzed on analytical SEC to be >99% in purity.

Another data set has as its target T2, human Notch1 NRR-Fc (Homo sapiens, UniProt P46531).
T2 construct: Expression constructs encoding human Notch1 and Notch2 NRR regions, fused with human IgG1 Fc fragments; made in house; host or cells: CHO-PACE cells
T2 sequence (P46531 1446-1733 limits assumed): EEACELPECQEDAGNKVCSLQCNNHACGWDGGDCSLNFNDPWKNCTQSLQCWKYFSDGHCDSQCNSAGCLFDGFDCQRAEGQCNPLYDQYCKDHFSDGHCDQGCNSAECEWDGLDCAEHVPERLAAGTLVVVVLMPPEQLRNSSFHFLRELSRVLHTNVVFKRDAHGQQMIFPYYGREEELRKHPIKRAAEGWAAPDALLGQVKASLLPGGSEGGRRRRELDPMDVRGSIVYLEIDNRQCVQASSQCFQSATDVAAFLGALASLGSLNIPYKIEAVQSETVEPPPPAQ
As to the kind of experiment: Binding to Notch1 NRR-Fc. Particulars: N/B = non-binding.
Description: as §1, §2

In data set [2] the target is T3, human Notch3 NRR recombinant protein (Homo sapiens, UniProt Q9UM47).
T3 construct: made in house
T3 sequence (Q9UM47 with tags, fused parts or gaps): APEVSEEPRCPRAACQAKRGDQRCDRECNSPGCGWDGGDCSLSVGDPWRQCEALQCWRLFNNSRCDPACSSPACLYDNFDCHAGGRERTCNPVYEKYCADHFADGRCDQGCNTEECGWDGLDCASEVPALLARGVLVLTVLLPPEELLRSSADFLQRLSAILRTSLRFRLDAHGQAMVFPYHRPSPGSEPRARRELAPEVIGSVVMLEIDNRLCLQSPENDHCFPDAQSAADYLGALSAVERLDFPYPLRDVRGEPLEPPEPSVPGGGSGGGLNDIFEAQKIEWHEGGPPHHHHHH
Nature of the data set: Surface plasmon resonance (Biacore) kinetic analysis. Format: binding. Particulars: antibody captured; 1:1 Langmuir model. On the procedure: The kinetic constants of the anti-Notch3 NRR interactions were determined by surface plasmon resonance (Biacore® T100, Biacore Inc., Piscataway, N.J.). Flow cells of a CM5 chip were immobilized with approximately 10,000 response units (RU) of anti-human IgG-Fc (Biacore®) in 10 mM Glycine, pH 5.0 at 10 μl/min for 600 seconds. 10 μg/ml of anti-Notch3 antibodies ch28 and hu28, and ch75 and hu75 were diluted in TBS with 1 mM CaCl2 were captured at 10 μl/min. Association of four concentrations of human Notch3 NRR recombinant protein (from 3.7-100 nM) and a zero concentration (running buffer) at 100 μl/min were recorded for 3 minutes in TBS with 1 mM CaCl2. Dissociation of the complexes was measured for 10 minutes. The surface of the chip was regenerated by injecting 3M MgCl2 with 3 mM EGTA for 60 seconds at 10 μl/min. Curves obtained after subtraction of the reference and buffer signals were fitted to a 1:1 Langmuir binding model with Biacore® T100 Evaluation Software (Biacore®).

B1: ch75: rat-human chimeric anti-Notch3 antibody 75, rat variable regions fused with human IgG1 and human kappa (antibody, V domains shown)
VH: QVKLLQSGAALVKPGASVKMSCKASGYAFTDYWVTWVKQSHGKSLEWIGEISPNSGGTNFNEKFKGKATLTVDKSTSTAYMELSRLTSEDSAIYYCTRGEIRYNWFAYWGQGTLVTVSS
VL: NIVMTQSPKSMSISVGDRVTMNCKASQNVGNNIAWYQQKPGQSPKLLIYYASNRYTGVPDRFTGGGYGTDFTLTINSMQAEDAAFYYCQRLYNSPFTFGSGTKLEIK
For B1, in data set [1], the “Tm ± Standard Deviation, CH2” value was found to be 73.32 ± 0.01 °C; the “Tm ± Standard Deviation, CH3” value was found to be 84.59 ± 0.03 °C; the “Tm ± Standard Deviation, Fab” value stood at 73.32 ± 0.01 °C. Also, in the data set with human Notch2 NRR-Fc, the “Binding to Notch2 NRR-Fc” value is “N/B”. The “Binding to Notch1 NRR-Fc” value in the data set with human Notch1 NRR-Fc is listed as “N/B”. Besides, in data set [2], the ka is 57000 M⁻¹ s⁻¹ and the kd stood at 0.000992 s⁻¹.

B2: hu28 VH1.0/VL1.0: humanized r28 variant VH1.0/VL1.0, anti-Notch3 antibody (VH SEQ ID NO: 13, VL SEQ ID NO: 25) (antibody, V domains shown)
VH: EVQLVESGGGLVQPGGSLRLSCAASGFTFRDYGMTWVRQAPGKGLEWVAYISSGSNYIYYAEAVKGRFTISRDNAKNSLYLQMNSLRAEDTAVYYCARRGPFVLDAWGQGTLVTVSS
VL: DIQMTQSPSSLSASVGDRVTITCKASQSINRYLHWYQQKPGKAPKLLIYNANGLQTGVPSRFSGSGSGTDFTLTISSLQPEDFATYYCLQHNTWPDTFGGGTKVEIK
As to B2, in data set [1], the “Tm ± Standard Deviation, CH2” value stood at 72.63 ± 0.03 °C; the “Tm ± Standard Deviation, CH3” value is 83.45 ± 0.17 °C; the “Tm ± Standard Deviation, Fab” value amounted to 83.45 ± 0.17 °C. The “Binding to Notch2 NRR-Fc” value in the data set with human Notch2 NRR-Fc is recorded as “N/B”. Also, the “Binding to Notch1 NRR-Fc” value in the data set with human Notch1 NRR-Fc was “N/B”. In data set [2], the ka turned out to be 386000 M⁻¹ s⁻¹ and the kd stood at 0.000347 s⁻¹.
